Data taken from patent US20150224205A1.
Values joined by “and” are separate entries in the source; they are usually repeats but may differ in a detail not shown here. Equal values may be shown once.

Biological target: T1, C1-esterase
T1 sequence (P09871 16-688, species assumed, looked up): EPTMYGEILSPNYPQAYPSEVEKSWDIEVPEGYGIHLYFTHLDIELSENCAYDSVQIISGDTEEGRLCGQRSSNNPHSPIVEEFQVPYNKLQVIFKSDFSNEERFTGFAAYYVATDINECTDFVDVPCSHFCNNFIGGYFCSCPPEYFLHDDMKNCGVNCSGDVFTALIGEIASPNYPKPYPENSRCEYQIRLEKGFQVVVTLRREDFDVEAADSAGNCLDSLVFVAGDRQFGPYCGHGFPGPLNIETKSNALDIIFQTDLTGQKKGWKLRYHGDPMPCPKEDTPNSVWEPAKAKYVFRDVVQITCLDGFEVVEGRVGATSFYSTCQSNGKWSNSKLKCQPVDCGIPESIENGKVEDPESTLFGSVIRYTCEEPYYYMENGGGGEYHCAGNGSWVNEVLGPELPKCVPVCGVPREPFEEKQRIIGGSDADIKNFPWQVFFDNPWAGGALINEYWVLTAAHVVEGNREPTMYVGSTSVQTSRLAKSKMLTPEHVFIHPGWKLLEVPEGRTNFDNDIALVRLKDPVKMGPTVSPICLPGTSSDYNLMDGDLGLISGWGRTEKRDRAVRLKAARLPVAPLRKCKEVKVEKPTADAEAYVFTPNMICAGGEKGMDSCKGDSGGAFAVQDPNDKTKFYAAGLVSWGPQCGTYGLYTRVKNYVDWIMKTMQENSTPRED
Assay: cell-based or functional assay

Sequence of ALD-PEG(40 k)-C1 INH, mono PEGylated (PEG#/C1 INH = 1) (P05155 23-500 limits assumed): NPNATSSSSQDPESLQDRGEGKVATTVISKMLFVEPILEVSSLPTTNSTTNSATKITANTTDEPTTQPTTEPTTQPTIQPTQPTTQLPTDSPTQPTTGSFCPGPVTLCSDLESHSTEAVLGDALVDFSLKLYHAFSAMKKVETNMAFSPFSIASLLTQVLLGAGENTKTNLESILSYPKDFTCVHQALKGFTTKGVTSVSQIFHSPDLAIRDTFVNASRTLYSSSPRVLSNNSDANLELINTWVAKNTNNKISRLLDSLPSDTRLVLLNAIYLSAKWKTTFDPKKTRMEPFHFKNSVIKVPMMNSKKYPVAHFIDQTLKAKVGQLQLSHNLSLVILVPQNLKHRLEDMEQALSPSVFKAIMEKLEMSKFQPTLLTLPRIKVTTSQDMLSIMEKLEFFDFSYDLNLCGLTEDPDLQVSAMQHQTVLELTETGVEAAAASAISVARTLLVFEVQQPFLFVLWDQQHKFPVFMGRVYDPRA
Sequence of 5k mPEG-BCN-C1 INH (P05155 23-500 limits assumed): as above
Sequence of ALD-PEG2(40 k)-C1 INH, di PEGylated (PEG#/C1 INH = 2) (P05155 23-500 limits assumed): as above
Sequence of ALD-PEG2(40 k)-C1 INH, mono PEGylated (PEG#/C1 INH = 1) (P05155 23-500 limits assumed): as above
Sequence of ALD-PEG(40 k)-C1 INH, di PEGylated (PEG#/C1 INH = 2) (P05155 23-500 limits assumed): as above

Row | Substance | % C1 INH Activity [%] | C1 in activity [U/mg] | Specific Activity (U/mg)
1 | ALD-PEG(40 k)-C1 INH, di PEGylated (PEG#/C1 INH = 2) (from UniProt P05155 23-500) | 75 |  | 6.8 U/mg
2 | ALD-PEG(40 k)-C1 INH, mono PEGylated (PEG#/C1 INH = 1) (from UniProt P05155 23-500) | 67 |  | 6.1 U/mg and 6.9 U/mg

Results, then the substance that gave them:

Row | % C1 INH Activity [%] | C1 in activity [U/mg] | Specific Activity (U/mg) | Substance
3 | 100 | 3.7 | 7.3 U/mg | 5k mPEG-BCN-C1 INH (from UniProt P05155 23-500)
4 | 43 |  | 3.9 U/mg | ALD-PEG2(40 k)-C1 INH, di PEGylated (PEG#/C1 INH = 2) (from UniProt P05155 23-500)
5 | 81 |  | 7.4 U/mg | ALD-PEG2(40 k)-C1 INH, mono PEGylated (PEG#/C1 INH = 1) (from UniProt P05155 23-500)
